± gives the standard deviation of the averaged measurements. Bounds are passed on as bounds.

The data set is described as follows: total protein half-life in vivo (active degradation + dilution); higher = more stable protein.
Setting [1] is: wild type E. coli NCM3722, growth: C-lim chemostat, doubling time 12 h.
Setting [2] is: E. coli NCM3722 delta-clpP delta-lon delta-hslV, growth: N-lim chemostat, doubling time 6 h.
Where [3] appears, read: E. coli NCM3722 delta-clpP, growth: N-lim chemostat, doubling time 6 h.
Setting [4] is: E. coli NCM3722 delta-hslV, growth: N-lim chemostat, doubling time 6 h.
Where [5] appears, read: E. coli NCM3722 delta-lon, growth: N-lim chemostat, doubling time 6 h.
Setting [6] is: E. coli NCM3722 delta-smpB, growth: N-lim chemostat, doubling time 6 h.
Where [7] appears, read: wild type E. coli NCM3722, growth: C-lim chemostat, doubling time 3 h.
Where [8] appears, read: wild type E. coli NCM3722, growth: C-lim chemostat, doubling time 6 h.
Where [9] appears, read: wild type E. coli NCM3722, growth: N-lim chemostat, doubling time 6 h.
[10] abbreviates: wild type E. coli NCM3722, growth: N-lim chemostat, doubling time 12 h.
The mark [11] stands for this setting: wild type E. coli NCM3722, growth: P-lim chemostat, doubling time 6 h.
[12] abbreviates: wild type E. coli NCM3722, growth: P-lim chemostat, doubling time 12 h.

With “MSTITLLCIALAGVIMLLLLVIKAKVQPFVALLLVSLLVALAAGIPAGEVGKVMIAGMGGVLGSVTIIIGLGAMLGRMIEHSGGAESLANYFSRKLGDKRTIAALTLAAFFLGIPVFFDVGFIILAPIIYGFAKVAKISPLKFGLPVAGIMLTVHVAVPPHPGPVAAAGLLHADIGWLTIIGIAISIPVGVVGYFAAKIINKRQYAMSVEVLEQMQLAPASEEGATKLSDKINPPGVALVTSLIVIPIAIIMAGTVSATLMPPSHPLLGTLQLIGSPMVALMIALVLAFWLLALRRGWSLQHTSDIMGSALPTAAVVILVTGAGGVFGKVLVESGVGKALANMLQMIDLPLLPAAFIISLALRASQGSATVAILTTGGLLSEAVMGLNPIQCVLVTLAACFGGLGASHINDSGFWIVTKYLGLSVADGLKTWTVLTTILGFTGFLITWCVWAVI”, the “total protein half-life in vivo” value under setting [1] turned out to be 15.2 h.

Take “MRISLKKSGMLKLGLSLVAMTVAASVQAKTLVYCSEGSPEGFNPQLFTSGTTYDASSVPLYNRLVEFKIGTTEVIPGLAEKWEVSEDGKTYTFHLRKGVKWHDNKEFKPTRELNADDVVFSFDRQKNAQNPYHKVSGGSYEYFEGMGLPELISEVKKVDDNTVQFVLTRPEAPFLADLAMDFASILSKEYADAMMKAGTPEKLDLNPIGTGPFQLQQYQKDSRIRYKAFDGYWGTKPQIDTLVFSITPDASVRYAKLQKNECQVMPYPNPADIARMKQDKSINLMEMPGLNVGYLSYNVQKKPLDDVKVRQALTYAVNKDAIIKAVYQGAGVSAKNLIPPTMWGYNDDVQDYTYDPEKAKALLKEAGLEKGFSIDLWAMPVQRPYNPNARRMAEMIQADWAKVGVQAKIVTYEWGEYLKRAKDGEHQTVMMGWTGDNGDPDNFFATLFSCAASEQGSNYSKWCYKPFEDLIQPARATDDHNKRVELYKQAQVVMHDQAPALIIAHSTVFEPVRKEVKGYVVDPLGKHHFENVSIE”: the “total protein half-life in vivo” value under setting [2] is 6.22 ± 0.29 h; the “total protein half-life in vivo” value under setting [3] is 6.39 ± 1.1 h; the “total protein half-life in vivo” value under setting [4] is 6.489 ± 0.018 h; the “total protein half-life in vivo” value under setting [5] is 6.6 ± 0.13 h; the “total protein half-life in vivo” value under setting [6] came out at 5.83 ± 0.096 h; the “total protein half-life in vivo” value under setting [7] was 3.33 ± 0.069 h. Further, the “total protein half-life in vivo” value reads like this: under setting [8], 6.97 ± 1.4 h; under setting [1], 14.3 ± 1.9 h; under setting [9], 6.058 ± 0.029 h; under setting [10], 12.9 ± 0.92 h; under setting [11], 6.06 ± 0.45 h; under setting [12], 13.1 ± 0.31 h.

Consider “MARSKTAQPKHSLRKIAVVVATAVSGMSVYAQAAVEPKEDTITVTAAPAPQESAWGPAATIAARQSATGTKTDTPIQKVPQSISVVTAEEMALHQPKSVKEALSYTPGVSVGTRGASNTYDHLIIRGFAAEGQSQNNYLNGLKLQGNFYNDAVIDPYMLERAEIMRGPVSVLYGKSSPGGLLNMVSKRPTTEPLKEVQFKAGTDSLFQTGFDFSDSLDDDGVYSYRLTGLARSANAQQKGSEEQRYAIAPAFTWRPDDKTNFTFLSYFQNEPETGYYGWLPKEGTVEPLPNGKRLPTDFNEGAKNNTYSRNEKMVGYSFDHEFNDTFTVRQNLRFAENKTSQNSVYGYGVCSDPANAYSKQCAALAPADKGHYLARKYVVDDEKLQNFSVDTQLQSKFATGDIDHTLLTGVDFMRMRNDINAWFGYDDSVPLLNLYNPVNTDFDFNAKDPANSGPYRILNKQKQTGVYVQDQAQWDKVLVTLGGRYDWADQESLNRVAGTTDKRDDKQFTWRGGVNYLFDNGVTPYFSYSESFEPSSQVGKDGNIFAPSKGKQYEVGVKYVPEDRPIVVTGAVYNLTKTNNLMADPEGSFFSVEGGEIRARGVEIEAKAALSASVNVVGSYTYTDAEYTTDTTYKGNTPAQVPKHMASLWADYTFFDGPLSGLTLGTGGRYTGSSYGDPANSFKVGSYTVVDALVRYDLARVGMAGSNVALHVNNLFDREYVASCFNTYGCFWGAERQVVATATFRF”, for which the “total protein half-life in vivo” value under setting [2] is 6.92 ± 0.69 h; the “total protein half-life in vivo” value under setting [3] came to 6.41 ± 0.62 h; the “total protein half-life in vivo” value under setting [4] came out at 6.62 ± 0.65 h; the “total protein half-life in vivo” value under setting [5] is 6.11 ± 0.76 h; the “total protein half-life in vivo” value under setting [7] was 3.36 ± 0.23 h; the “total protein half-life in vivo” value under setting [8] stood at 6.64 ± 0.37 h. Moreover, the “total protein half-life in vivo” value worked out at 14.3 ± 1.2 h under setting [1], 6.14 ± 0.072 h under setting [9], 11.6 ± 6.1 h under setting [10] and 13 ± 0.45 h under setting [12].

As for “MKTIGLLGGMSWESTIPYYRLINEGIKQRLGGLHSAQVLLHSVDFHEIEECQRRGEWDKTGDILAEAALGLQRAGAEGIVLCTNTMHKVADAIESRCTLPFLHIADATGRAITGAGMTRVALLGTRYTMEQDFYRGRLTEQFSINCLIPEADERAKINQIIFEELCLGQFTEASRAYCAQVIARLAEQGAQGVIFGCTEIGLLVPEERSVLPVFDTAAIHAEDAVAFMLS”, the “total protein half-life in vivo” value under setting [3] came out at 4.02 ± 0.18 h; the “total protein half-life in vivo” value under setting [4] was determined as 4.05 ± 0.27 h; the “total protein half-life in vivo” value under setting [5] was 4.84 ± 0.066 h; the “total protein half-life in vivo” value under setting [6] was determined as 3.69 ± 0.16 h; the “total protein half-life in vivo” value under setting [7] was 2.27 ± 0.064 h; the “total protein half-life in vivo” value under setting [8] worked out at 4.43 ± 0.24 h. Further, the “total protein half-life in vivo” value runs as follows: under setting [1], 7.096 ± 0.017 h; under setting [9], 3.96 ± 0.22 h; under setting [10], 6.72 ± 0.36 h; under setting [11], 4.25 ± 0.4 h; under setting [12], 8.06 ± 0.15 h.

For the sequence “MMSKINQTDIDRLIELVGGRGNIATVSHCITRLRFVLNQPANARPKEIEQLPMVKGCFTNAGQFQVVIGTNVGDYYQALIASTGQAQVDKEQVKKAARHNMKWHEQLISHFAVIFFPLLPALISGGLILGFRNVIGDLPMSNGQTLAQMYPSLQTIYDFLWLIGEAIFFYLPVGICWSAVKKMGGTPILGIVLGVTLVSPQLMNAYLLGQQLPEVWDFGMFSIAKVGYQAQVIPALLAGLALGVIETRLKRIVPDYLYLVVVPVCSLILAVFLAHALIGPFGRMIGDGVAFAVRHLMTGSFAPIGAALFGFLYAPLVITGVHQTTLAIDLQMIQSMGGTPVWPLIALSNIAQGSAVIGIIISSRKHNEREISVPAAISAWLGVTEPAMYGINLKYRFPMLCAMIGSGLAGLLCGLNGVMANGIGVGGLPGILSIQPSYWQVFALAMAIAIIIPIVLTSFIYQRKYRLGTLDIV”, the “total protein half-life in vivo” value reads like this: under setting [6], 2.51 h; under setting [7], 2.85 ± 0.2 h; under setting [8], 4.23 ± 0.33 h; under setting [1], 6.59 ± 0.51 h; under setting [11], 4.13 h; under setting [12], 6.92 h.

Regarding “MNYQMITTDDALASLCEAVRAFPAIALDTEFVRTRTYYPQLGLIQLFDGEHLALIDPLGITDWSPLKAILRDPSITKFLHAGSEDLEVFLNVFGELPQPLIDTQILAAFCGRPMSWGFASMVEEYSGVTLDKSESRTDWLARPLTERQCEYAAADVWYLLPITAKLMVETEASGWLPAALDECRLMQMRRQEVVAPEDAWRDITNAWQLRTRQLACLQLLADWRLRKARERDLAVNFVVREEHLWSVARYMPGSLGELDSLGLSGSEIRFHGKTLLALVEKAQTLPEDALPQPMLNLMDMPGYRKAFKAIKSLITDVSETHKISAELLASRRQINQLLNWHWKLKPQNNLPELISGWRGELMAEALHNLLQEYPQ”, the “total protein half-life in vivo” value under setting [2] turned out to be 4.11 ± 0.93 h; the “total protein half-life in vivo” value under setting [3] came out at 4.41 ± 1.4 h; the “total protein half-life in vivo” value under setting [4] came out at 3.88 ± 0.32 h; the “total protein half-life in vivo” value under setting [5] turned out to be 4.79 ± 1.2 h; the “total protein half-life in vivo” value under setting [6] was found to be 3.65 ± 0.37 h; the “total protein half-life in vivo” value under setting [7] is above 4 h. The “total protein half-life in vivo” value by setting is: under setting [8], 5.23 ± 0.24 h; under setting [1], 10 ± 0.67 h; under setting [9], 3.834 ± 0.0071 h; under setting [10], 6.31 ± 1.4 h; under setting [11], 5.82 ± 0.58 h; under setting [12], 11.8 ± 1.5 h.

As to “MYRIGELAKMAEVTPDTIRYYEKQQMMEHEVRTEGGFRLYTESDLQRLKFIRHARQLGFSLESIRELLSIRIDPEHHTCQESKGIVQERLQEVEARIAELQSMQRSLQRLNDACCGTAHSSVYCSILEALEQGASGVKSGC [P0ACS5]”, the “total protein half-life in vivo” value runs as follows: under setting [2], 4.46 ± 0.81 h; under setting [5], 2.16 h; under setting [6], 0.555 ± 0.043 h; under setting [8], 0.866 h; under setting [1], 1 h; under setting [9], 0.748 ± 0.26 h.

Take “MQKVKLPLTLDPVRTAQKRLDYQGIYTPDQVERVAESVVSVDSDVECSMSFAIDNQRLAVLNGDAKVTVTLECQRCGKPFTHQVYTTYCFSPVRSDEQAEALPEAYEPIEVNEFGEIDLLAMVEDEIILALPVVPVHDSEHCEVSEADMVFGELPEEAQKPNPFAVLASLKRK [P0AB28]”: the “total protein half-life in vivo” value runs as follows: under setting [2], 5.71 ± 1.6 h; under setting [3], 5.08 ± 1.3 h; under setting [4], 3.49 ± 0.1 h; under setting [5], 3.58 ± 0.24 h; under setting [6], 3.21 ± 0.78 h; under setting [7], 1.93 ± 0.19 h. The “total protein half-life in vivo” value by setting is: under setting [8], 4.48 ± 0.12 h; under setting [1], 7.12 ± 0.54 h; under setting [9], 3.66 ± 0.32 h; under setting [10], 5.22 ± 0.26 h; under setting [11], 4.32 ± 0.3 h; under setting [12], 8.64 ± 0.14 h.

For the origin of these results see the supplement of paper PMC11246515.
